What was measured:
[1] = molecular target: pep3 …[X]-CONH2, X = Glu; experiment: fluorescence polarisation; FBXO31–SKP1 complex (0–5 µM) titrated to fluorescein-labelled peptide (2–10 nM); 25 mM HEPES, 150 mM NaCl, pH 7.5; room temperature, 30 min; one-site fit, n = 3 parallel experiments
[2] = molecular target: pep3 …[X]-CONH2, X = Ile; experiment: as above
[3] = molecular target: pep3 …[X]-CONH2, X = Gly; experiment: as above
[4] = molecular target: pep3 …[X]-CONH2, X = Leu; experiment: as above
[5] = molecular target: pep3 …[X]-CONH2, X = Val; experiment: as above
[6] = molecular target: pep3 …[X]-CONH2, X = Pro; experiment: as above
[7] = molecular target: pep3 …[X]-CONH2, X = His; experiment: as above
[8] = molecular target: pep3 …[X]-CONH2, X = Ser; experiment: as above
[9] = molecular target: pep3 …[X]-CONH2, X = Arg; experiment: as above
[10] = molecular target: pep3 …[X]-CONH2, X = Trp; experiment: as above
[11] = molecular target: pep3 …[X]-CONH2, X = Met; experiment: as above
[12] = molecular target: pep3 …[X]-CONH2, X = Cys; experiment: as above
[13] = molecular target: pep3 …[X]-CONH2, X = Lys; experiment: as above
[14] = molecular target: pep3 …[X]-CONH2, X = Thr; experiment: as above
[15] = molecular target: pep3 …[X]-CONH2, X = Ala; experiment: as above
[16] = molecular target: pep3 …[X]-CONH2, X = Tyr; experiment: as above
[17] = molecular target: pep3 with terminal Phe amide (…-CONH2); experiment: fluorescence polarisation; FBXO31–SKP1 complex (0–5 µM) titrated against fluorescein-labelled peptides (2–10 nM); 25 mM HEPES, 150 mM NaCl, pH 7.5, room temperature, 30 min; one-site fit; constants of the highest affinity probes only approximate
[18] = molecular target: pep3 with terminal Gln amide (…-CONH2); experiment: as above
[19] = molecular target: pep3 with terminal Asp amide (…-CONH2); experiment: as above
[20] = molecular target: pep3 with terminal Asn amide (…-CONH2); experiment: as above

Substance	Kd [1] [nM]	Kd [2] [nM]	Kd [3] [nM]	Kd [4] [nM]	Kd [5] [nM]	Kd [6] [nM]	Kd [7] [nM]	Kd [8] [nM]	Kd [9] [nM]	Kd [10] [nM]	Kd [11] [nM]	Kd [12] [nM]	Kd [13] [nM]	Kd [14] [nM]	Kd [15] [nM]	Kd [16] [nM]	Kd [17] [nM]	Kd [18] [nM]	Kd [19] [nM]	Kd [20] [nM]
FBXO31–SKP1 complex (StrepII-FBXO31.1(∆1–65) with SKP1(A2P,∆38–43,∆71–82)) (from UniProt Q5XUX0 66-539; P63208 1-163)	103	32.1	137	41.4	43.7	58.2	13.2	49.6	71	38.2	21	19.9	93.8	42	54.4	25.9				
recombinant FBXO31–SKP1 complex (wild type) (from UniProt Q5XUX0 66-539; P63208 1-163)																	6	55	304	24

Source: PMC11821526
